Assay results: patent publication US20230407373A1 (priority 2020, published 2023)
Read-outs that look alike come from different tables or passages of the source.

B1: SND1: host protein, UniProt Q7KZF4 (protein, UniProt Q7KZF4 2-910, looked up)
Staphylococcal nuclease …: ASSAQSGGSSGGPAVPTVQRGIIKMVLSGCAIIVRGQPRGGPPPERQINLSNIRAGNLARRAAATQPDAKDTPDEPWAFPAREFLRKKLIGKEVCFTIENKTPQGREYGMIYLGKDTNGENIAESLVAEGLATRREGMRANNPEQNRLSECEEQAKAAKKGMWSEGNGSHTIRDLKYTIENPRHFVDSHHQKPVNAIIEHVRDGSVVRALLLPDYYLVTVMLSGIKCPTFRREADGSETPEPFAAEAKFFTESRLLQRDVQIILESCHNQNILGTILHPNGNITELLLKEGFARCVDWSIAVYTRGAEKLRAAERFAKERRLRIWRDYVAPTANLDQKDKQFVAKVMQVLNADAIVVKLNSGDYKTIHLSSIRPPRLEGENTQDKNKKLRPLYDIPYMFEAREFLRKKLIGKKVNVTVDYIRPASPATETVPAFSERTCATVTIGGINIAEALVSKGLATVIRYRQDDDQRSSHYDELLAAEARAIKNGKGLHSKKEVPIHRVADISGDTQKAKQFLPFLQRAGRSEAVVEYVFSGSRLKLYLPKETCLITFLLAGIECPRGARNLPGLVQEGEPFSEEATLFTKELVLQREVEVEVESMDKAGNFIGWLHIDGANLSVLLVEHALSKVHFTAERSSYYKSLLSAEEAAKQKKEKVWAHYEEQPVEEVMPVLEEKERSASYKPVFVTEITDDLHFYVQDVETGTQLEKLMENMRNDIASHPPVEGSYAPRRGEFCIAKFVDGEWYRARVEKVESPAKIHVFYIDYGNREVLPSTRLGTLSPAFSTRVLPAQATEYAFAFIQVPQDDDARTDAVDSVVRDIQNTQCLLNVEHLSAGCPHVTLQFADSKGDVGLGLVKEGLVMVEVRKEKQFQKVITEYLNAQESAKSARLNLWRYGDFRADDADEFGYSR
B2: RALY: host protein, UniProt Q9UKM9 (protein, UniProt Q9UKM9 2-306, looked up)
RNA-binding protein Raly: SLKLQASNVTNKNDPKSINSRVFIGNLNTALVKKSDVETIFSKYGRVAGCSVHKGYAFVQYSNERHARAAVLGENGRVLAGQTLDINMAGEPKPDRPKGLKRAASAIYSGYIFDYDYYRDDFYDRLFDYRGRLSPVPVPRAVPVKRPRVTVPLVRRVKTNVPVKLFARSTAVTTSSAKIKLKSSELQAIKTELTQIKSNIDALLSRLEQIAAEQKANPDGKKKGDGGGAGGGGGGGGSGGGGSGGGGGGGSSRPPAPQENTTSEAGLPQGEARTRDDGDEEGLLTHSEEELEHSQDTDADDGALQ

Tests used:
Assay type in all cases: binding
HCoV-OC43 gRNA and sgRNA = settings: for target (unweighted spectral count, OC43 Probe II capture) / target (spectral count) / background (spectral count): 36 hpi; for target (unweighted spectral count, OC43 Probe II capture): type n_36_v, FDR<10%; for target (unweighted spectral count, OC43 Probe II capture) / target (unweighted spectral count): tested against no-probe control; for target (unweighted spectral count): OC43 Probe II, infected cells; for target (unweighted spectral count, OC43 Probe II) / background (unweighted spectral count, no-probe control): type n_48_v, 48 hpi; for target (unweighted spectral count, OC43 Probe II): OC43 Probe II capture on infected cells; for background (unweighted spectral count, no-probe control): no-probe control on infected cells; for target (spectral count) / background (spectral count): type s_36_m, Probe II; for target (spectral count): HCoV-OC43-infected HCT-8 cells; for background (spectral count): uninfected-probe control
SARS-CoV-2 gRNA = settings: for target (unweighted spectral count of the protein in the RNP capture): LC-MS/MS, Probe I sample (first 199 lines of Table 2)
gRNA of HCoV-OC43 = settings: for target (spectral count) / background (spectral count): type g_36_m, 36 hpi, Probe I; for target (spectral count): HCoV-OC43-infected HCT-8 cells; for background (spectral count): uninfected-probe control; for target (spectral count, OC43 Probe I RNP capture) / background (spectral count, no-probe control): type n_48_v: 48 hours post-infection; for target (spectral count, OC43 Probe I RNP capture): infected cells, unweighted spectral count; for background (spectral count, no-probe control): no-probe control on infected cells
[1] = test system: SARS-CoV-2 gRNA and sgRNAs; settings: for background (unweighted spectral count in control): no-probe control pull-down, used as background for Probe II

Row | Molecule | target (unweighted spectral count, OC43 Probe II capture) (HCoV-OC43 gRNA and sgRNA) | target (unweighted spectral count) (HCoV-OC43 gRNA and sgRNA; 12 hpi (type n_12_v)) | target (unweighted spectral count) (HCoV-OC43 gRNA and sgRNA; 24 hpi (type n_24_v)) | target (unweighted spectral count, OC43 Probe II) (HCoV-OC43 gRNA and sgRNA) | background (unweighted spectral count, no-probe control) (HCoV-OC43 gRNA and sgRNA) | target (spectral count) (HCoV-OC43 gRNA and sgRNA) | background (spectral count) (HCoV-OC43 gRNA and sgRNA) | enrichment in SARS-CoV-2 Probe I RNP capture (SARS-CoV-2 gRNA) | target (unweighted spectral count of the protein in the RNP capture) (SARS-CoV-2 gRNA) | target (spectral count) (gRNA of HCoV-OC43) | background (spectral count) (gRNA of HCoV-OC43) | target (spectral count, OC43 Probe I RNP capture) (gRNA of HCoV-OC43) | background (spectral count, no-probe control) (gRNA of HCoV-OC43) | enrichment in SARS-CoV-2 Probe II RNP capture [1] | background (unweighted spectral count in control) [1] | target (unweighted spectral count in RNP capture) ([1]; Probe II capture, […], LC-MS/MS LFQ)
1 | B1 | 57 | 27 | 37 | 84 | 6 | 57 | 1 | found in the SARS-CoV-2 experiments | 16 | 16 | 3 | 25 | 6 | found in the SARS-CoV-2 experiments | 1 | –
2 | B2 | 23 | 4 | 14 | 24 | 2 | 23 | 2 | found in the SARS-CoV-2 experiments | 33 | 28 | 3 | 31 | 2 | found in the SARS-CoV-2 experiments | 1 | 28
